Measurements from patent US5889153A, “Protein or polypeptide, method for producing the same and intermediate compound therefor” (Hisamitsu Pharmaceutical Co., Inc., priority 1994, dated 1999).
Blank lines part the entries; values can stand above or below the substance they belong to.

Key:
[1] = test system: blood glucose; experiment: pharmacological effect of modified insulin: blood glucose value after intravenous administration; type: in vivo; settings: about 0.5 U intravenously, normal rat
Source text: Then, at prescribed intervals of time, venous blood was sampled to measure the insulin concentration in blood and blood glucose value at each time point.

[2] = test system: acute gastric ulcer; experiment: pharmacological effect of modified SOD: water immersion stress ulcerative model; type: in vivo; settings: 10,000 U, rat, compared with non-modified SOD
Procedure: To a rat, 10,000 U p-nitrophenyl formate-activated polyethyleneglycol-monocholesterolether (compound C)-modified or non-modified SOD were administered. Then, an acute gastric ulcer was caused in accordance with the method for preparing a water immersion stress ulcerative model, and the effect inhibiting generation of ulcer at this point was investigated.

[3] = in-vivo behaviors of modified SOD: SOD concentration in blood after intravenous administration; parameters: species or system rat; settings: about 5,000 U intravenously; for in-vivo behaviors (SOD concentration in blood): urethane-anesthetized rat or rat with ligated renal artery
Source text: About 5,000 U p-nitrophenyl formate-activated polyethyleneglycol-monocholesterolether (compound C)-modified or non-modified SOD were intravenously administered to an urethane-anesthetized rat or a rat of which only the renal artery was ligated after urethane anesthesia. Then, at prescribed intervals of time, venous blood was sampled to measure the SOD concentration in blood at each time point.

[4] = water-solubility of reactive PEG derivative; type: physicochemical; settings: 0.025 mM Na2B4O7.10H2O, pH 9.2, given as the reason for insufficient modification
Procedure: After dissolving bovine-derived insulin (6.0 mg) in 0.025 mM Na2 B4 O7.10H2 O (pH: 9.2) in an amount of 200 ml, p-nitrophenyl formate-activated polyethyleneglycolmono-cholesterolether (compound A), N-succinimide-activated polyethyleneglycol-monocholesterolether (compound B), p-nitrophenyl formate-activated polyethyleneglycol-mono-cholesterolether (compound C), cyanulchloride-activated polyethyleneglycol-monocholesterolether (compound D), double-type cyanulchloride-activated polyethyleneglycol-monocholesterolether (compound E), and p-nitrophenyl formate-activated polyethyleneglycol-monocholosterolether (compound F) obtained in Example 1 were respectively added in an amount of 2.0 nmol, and the mixtures were stirred at the room temperature for five hours. The resultant mixtures were purified through gel filtration by the use of Sephadex G-75 (made by Pharmacia Company). The target fraction was desalted and concentrated through ultrafiltration (made by Pharmacia Company), thereby obtaining the target aqueous solution (1.8 mg/ml). In the case of p-nitrophenyl formate-activated polyethylene-glycol-monocholesterolether (compoundA), the target modification was insufficient. […] In the case of p-nitrophenyl formate-activated polyethyleneglycol-monocholesterolether (compound F) also, the chemical modification was not sufficient. This is considered to be due to stereo-hindrance.

Substance: insulin [non-modified insulin]
- pharmacological effect (blood glucose value) [1]: identical pharmacological effects

Substance: modified SOD: bovine-derived Cu, Zn-SOD modified with p-nitrophenyl formate-activated polyethyleneglycol-monocholesterolether (compound C), Example 3
- effect inhibiting generation of ulcer [2]: production of an ulcer is inhibited
- glomerular filtration ([3]; rat): exempt from glomerular filtration
- half-life in blood ([3]; rat): extended
- in-vivo behaviors (SOD concentration in blood) [3]: largely improved

Substance: non-modified SOD: bovine-derived Cu, Zn-SOD (Superoxide Dismutase), not modified
- in-vivo behaviors (SOD concentration in blood) [3]: clearly improved

- water-solubility [4]: low water-solubility
Substance: p-nitrophenyl formate-activated polyethylene-glycolmonocholesterolether [compound A]
